Measured values taken from US20220411514A1 (TRUEBINDING, published 2022).

How the values were obtained:
[1] = molecular target: T1, Human Galectin-3 protein (Acro Biosystems, GA3-H5129) (human, UniProt P17931 2-250); assay: SPR sandwich binning, Carterra LSA
T1 construct: bought; also called Gal3-ECD-His; Gal3-His; not shown: linker-spaced 6-histidine tag

Peptide 5 of Gal3 = molecular target: T2, Peptide 5 of Gal3 (human); assay: peptide ELISA, antibody as hIgG4(S228P) at 5 ug/mL
T2 peptide: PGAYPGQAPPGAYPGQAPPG

Peptide 6 of Gal3 = molecular target: T3, Peptide 6 of Gal3 (human); assay: peptide ELISA, antibody as hIgG4(S228P) at 5 ug/mL
T3 peptide: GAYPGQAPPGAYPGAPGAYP

[2] = molecular target: T1, Human Galectin-3 protein (Acro …); assay: ELISA, INSR binding to coated Gal3 with 3 ug/mL antibody
[3] = molecular target: T4, His-enterokinase cleavage site (EK)-cynoGal3 (TrueBinding in-house antigen) (cynomolgus, UniProt A0A7N9CYL1 6-247); assay: SPR Biacore T200, protocol of Example 9
T4 construct: also called His-EK-cynoGal3; cynomolgus Gal3; not shown: His tag and enterokinase cleavage site
T4 sequence (A0A7N9CYL1 entry or part of it): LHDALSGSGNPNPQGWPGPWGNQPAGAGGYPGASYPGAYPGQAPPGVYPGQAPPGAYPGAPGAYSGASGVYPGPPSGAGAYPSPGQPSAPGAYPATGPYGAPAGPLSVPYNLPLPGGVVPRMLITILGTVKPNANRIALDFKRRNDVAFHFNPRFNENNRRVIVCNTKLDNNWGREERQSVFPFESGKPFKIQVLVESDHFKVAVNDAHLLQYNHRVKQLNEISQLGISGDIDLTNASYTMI

human Galectin-3 (Gal3) [4] = molecular target: T5, human Galectin-3 (Gal3) (human, UniProt P17931 2-250, limits assumed); assay: SPR Carterra LSA, protocol of Example 9
T5 construct: also called hGal3; hGAL3
T5 sequence (P17931 2-250 limits assumed): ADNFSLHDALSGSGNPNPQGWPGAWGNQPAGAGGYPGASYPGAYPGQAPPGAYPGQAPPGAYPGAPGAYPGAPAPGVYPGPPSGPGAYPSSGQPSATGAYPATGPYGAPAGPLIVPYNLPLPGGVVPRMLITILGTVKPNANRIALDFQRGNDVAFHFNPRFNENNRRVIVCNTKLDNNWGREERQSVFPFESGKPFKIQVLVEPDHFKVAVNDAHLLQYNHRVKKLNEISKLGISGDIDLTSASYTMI

mouse Gal3 [5] = molecular target: T6, mouse Gal3 (mouse, UniProt P16110 2-264, limits assumed); assay: SPR Carterra LSA, protocol of Example 9
T6 sequence (P16110 2-264 limits assumed): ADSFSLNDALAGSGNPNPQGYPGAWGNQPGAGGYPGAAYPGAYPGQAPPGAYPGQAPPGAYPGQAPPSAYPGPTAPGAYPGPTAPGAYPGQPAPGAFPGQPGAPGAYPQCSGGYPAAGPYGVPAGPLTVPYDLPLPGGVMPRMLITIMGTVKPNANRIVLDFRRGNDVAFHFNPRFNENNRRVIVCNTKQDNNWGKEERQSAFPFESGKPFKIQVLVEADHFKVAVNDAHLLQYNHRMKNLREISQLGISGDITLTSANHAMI

[6] = molecular target: T4, His-enterokinase cleavage site …; assay: SPR Biacore T200, antibody captured, 1:1 fit
His-EK-ratGal3 = molecular target: T7, His-EK-ratGal3 (rat, UniProt P08699 2-262); assay: SPR Biacore T200, antibody captured by anti-human Fc, 1:1 fit
T7 construct: not shown: His tag and enterokinase cleavage site
T7 sequence (looked up): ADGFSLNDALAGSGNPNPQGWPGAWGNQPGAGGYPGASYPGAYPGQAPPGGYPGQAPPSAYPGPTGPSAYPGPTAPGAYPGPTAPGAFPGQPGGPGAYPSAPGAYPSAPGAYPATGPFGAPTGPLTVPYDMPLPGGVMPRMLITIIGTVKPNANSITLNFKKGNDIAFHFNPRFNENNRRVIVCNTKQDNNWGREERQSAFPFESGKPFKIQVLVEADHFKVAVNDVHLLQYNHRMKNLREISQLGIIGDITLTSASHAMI

human Galectin-3 (Gal3) [7] = molecular target: T5, human Galectin-3 (Gal3); assay: SPR Carterra LSA, antibody captured on Protein A/G, Gal3 analyte
mouse Gal3 [8] = molecular target: T6, mouse Gal3; assay: as above
human Galectin-3 (Gal3) [9] = molecular target: T5, human Galectin-3 (Gal3); assay: SPR Biacore T200, antibody captured, Gal3 analyte, 1:1 fit
human Galectin-3 (Gal3) [10] = molecular target: T5, human Galectin-3 (Gal3); assay: HDX-MS

T1 sequence (P17931 2-250): as the sequence (P17931 2-250 limits assumed) above

B1: F847C.21H6 (antibody, V domains shown)
VH: QIQLVQSGPELKKPGETVKISCKASGYTFTIFGMNWVKQAPGKGLKWMGWVNTYTGEPTYADDFKGRFAFSLETSASTAYLQINNLKNEDTATYFCARGWFAYWGQGTLVTVSA
VL: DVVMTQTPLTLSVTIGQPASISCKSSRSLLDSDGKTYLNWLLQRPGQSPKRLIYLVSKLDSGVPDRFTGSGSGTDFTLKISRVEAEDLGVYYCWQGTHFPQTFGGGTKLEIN
[1]
  binding result: binds
Peptide 5 of Gal3
  binding result: binds
Peptide 6 of Gal3
  binding result: binds

B2: 3B11.2G2 (antibody, V domains shown)
VH: QIQLVQSGPELKKPGETVKISCKTSGYKFKTYVMSWVKQAPGKALKWMGWINTYSGVPTYADDFKGRFAFSLETSASTAYLEIINLKNEDTATYFCARDGNYGDPMDYWGQGTSVTVSS
VL: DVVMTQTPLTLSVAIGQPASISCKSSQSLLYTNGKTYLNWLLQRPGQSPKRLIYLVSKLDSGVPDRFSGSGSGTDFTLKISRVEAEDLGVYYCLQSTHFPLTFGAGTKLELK
[2]
  Gal3-INSR binding left, % of unblocked sample: < 5%

B3: TB001 (antibody, V domains shown)
VH: QVQLVQSGSELKKPGASVKVSCKASGYTFTNYGMNWVRQAPGQGLKWMGWINTNTGEPTYVEEFTGRFVFSLETSVSTAYLQISSLKAEDTAVYFCAPYDNFFAYWGQGTTVTVSS
VL: DIVLTQSPLSLPVTPGEPASISCRSSKSLLYKDGKTYLNWFLQKPGQSPQLLIYLMSTHASGVPDRFSGSGSGTDFTLKISRVEAEDVGVYYCQQLVDYPLTFGGGTKLEIKR
[3]
  Kd: 34 nM
Human Galectin-3 (Gal3) [4]
  Kd: 9.7 nM
Mouse Gal3 [5]
  Kd: 4.2 nM
[6]
  Kd: 8.9 nM
His-EK-ratGal3
  Kd: 14 nM
Human Galectin-3 (Gal3) [7]
  Kd: 3.6 nM
Mouse Gal3 [8]
  Kd: 2.3 nM

B4: TB006 (antibody, V domains shown)
VH: QVQLVQSGAEVKKPGASVKVSCKASGYSFTNYYMHWVRQAPGQRLEWMGWIYPGSGNTNYNEKFQGRVTITADTSASTAYMELSSLRSEDTAVYYCSTAPGGFDVWGQGTTVTVSS
VL: DIVMTQTPLSLSVTPGQPASISCKSSKSLLHSDGITYLYWYLQKPGQSPQLLIYRMSNLASGVPDRFSGSGSGTDFTLKISRVEAEDVGVYYCAQMLEFPLTFGQGTKLEIKR
[3]
  Kd: 9.4 nM
Human Galectin-3 (Gal3) [4]
  Kd: 23 nM
[6]
  Kd: 5.1 nM
Human Galectin-3 (Gal3) [7]
  Kd: 8.9 nM
Mouse Gal3 [8]
  Kd: 40000 nM

B5: 9H2.2H10 (antibody, V domains shown)
VH: QVQLQQPGAELVGPGSSVKLSCKASGYTFTNYWIHWVKQRPLQGLEWIGNIDPSDSETHYNQKFKDKATLTVDKSSSTAYMQLSSLTSEDSAVYYCARHGYYDYWGQGTTLTVSS
VL: DIVMTQSHKFMSTSVGDRVSITCKASQDVSTAVAWYQQKPGQSPKLLIYWASTRHTGVPDRFTGSGSGTDYTLTISSVQAEDLALYYCQQHYTTPLTFGAGTKLELKR
[2]
  inhibition of Gal3-INSR binding, %: ≤ 30%
Human Galectin-3 (Gal3) [9]
  Kd: 2.53 nM

B6: 12G5.D7 (antibody, V domains shown)
VH: QVQLKQSGAELVRPGASVKLSCKASGYTFTDYYINWVKQRPGQGLEWIARIYPGTGNTDYNEKFKGRATLTAEKSSSTAYMQLSSLTSEDSAVYFCARFAYYYGSGGYFDYWGHGTTLTVSS
VL: DILMTQSPSSMSVSLGDTVSITCHASQGINSNMGWLQQKPGKSFKGLIYHATNLEDGVPSRFSGSGSGADYSLTISSLESEDFADYYCVQYAQFPPTFGSGTKLEIK
[2]
  inhibition of Gal3-INSR binding, %: ≤ 30%
Human Galectin-3 (Gal3) [9]
  Kd: 1.9 nM

B7: Arg 228-Val 292 truncated form of GLUT4 (other)
chain: RYLYIIQNLEGPARKSLKRLTGWADVSGVLAELKDEKRKLERERPLSLLQLLGSRTHRQPLIIAV
Human Galectin-3 (Gal3) [10]
  binding result: binds

B8: 13G4.2F8 (antibody, V domains shown)
VH: QVQLQQPGAELVKPGASVKLSCKASGYTFTSYWMHWVKQRPGQGLEWIGMIHPNSGSTDYNEKFKNKATLNVDKSSSTAYIQLSSLTSEDSAVYYCTRWGIYYYARDYWGQGTTLTVSS
VL: DIVMTQSQKFMSTSVGERVSITCKASQNVGTNVAWYQQKAGQSLELLIYGASNRHTGVPDRFTGSGSGTDFTLTITNVQSEDMTNYFCEQYSNFPLTFGAGTKLELKR
[2]
  inhibition of Gal3-INSR binding, %: ≤ 30%
Human Galectin-3 (Gal3) [9]
  Kd: 18.4 nM

B9: 24D12.2H9 (antibody, V domains shown)
VH: QVQLKQSGPGLVQPSQSLSITCTVSGFSLTSYGVHWVRQAPGKGLEWLGVIWSGGSTDYNAAFMSRLSISKDNSKSQVFFKMNSLQADDTAIYYCAKSPDGYDVAWFGYWGQGTLVTVSA
VL: DIVMTQSHKFMSTSVGDRVSITCKASQDVRTAVAWYQQKPGQSPKLLIYWASTRHTGVPDRFTGSGSGTDFTLTLSNVQSEDLADYFCQQYSSYPWTFGGGTKLEIKR
[2]
  inhibition of Gal3-INSR binding, %: ≤ 30%
Human Galectin-3 (Gal3) [9]
  Kd: 4.13 nM

B10: 15G7.2A7 (antibody, V domains shown)
VH: EVQLQQSGPELVKPGASVKISCKASGYTFTDYYMNWVKQSHGKSLEWIGDINPNNGGTNYNQKFKGKATLTVDKSSSTAYMELRSLTSEDSAVYYCTSGYGFPYWGQGTLVTVSA
VL: DIQMNQSPSSLSASLGDTISITCRASQNINIWLSWYQQKPGNIPQLLIYKASNLHTGVPSRFSGSGSGTDFTLTISSLQPEDIATYYCLQGQSYPLTFGAGTKLVMKR
[2]
  inhibition of Gal3-INSR binding, %: > 99%
Human Galectin-3 (Gal3) [9]
  Kd: 27.8 nM

B11: 19B5.2E6 (antibody, V domains shown)
VH: QIQLVQSGPELKKPGETVKISCKASGYTFTTYAMSWVKQAPGKGLKWMGWINTYSGVPTYADDLKGRFAFSLETSASTAYLQINNLKNEDTATYFCARGPYAMDYWGQGTSVTVSS
VL: DIQMTQTTSSLSASLGDRVTISCSASQGINNYLNWYQQKPDGTVKLLIYYASSLHSGVPSRFSGSGSGTDYSLTISNLEPEDIATYYCQQYSQVPYTFGSGTKLEIKR
[2]
  Gal3-INSR binding left, % of unblocked sample: < 5%

B12: 23H9.2E4 (antibody, V domains shown)
VH: QIQLVQSGPELKKPGETVKISCKASGYTFTTYAMSWVKQAPGKGLKWMGWINTYSGVPTYADDLKGRFAFSLETSASTAYLQINNLKNEDTATYFCARGPYAMDYWGQGTSVTVSS
VL: DIQMTQTTSSLSASLGDRVTISCSASQGINNYLNWYQQKPDGTVKLLIYYASSLHSGVPSRFSGSGSGTDYSLTISNLEPEDIATYYCQQYSQVPYTFGSGTKLEIK
[2]
  Gal3-INSR binding left, % of unblocked sample: < 5%
